In the assay the target is T1, soluble CD4 (sCD4): human CD4 extracellular domain fused with a 6×His tag via a GS linker (human, UniProt P01730 26-396).
T1 construct: Produced in HEK293T supernatant; for staining the monomer was dimerized with a PE-labeled anti-6×His mAb (AD1.1.10); also called dimerized sCD4
Briefly: flow cytometry: K562 cells expressing the class II molecule stained with sCD4 dimerized by PE anti-His mAb. (A flow cytometer gives signals particle by particle.)

B1: wild-type DR1 (DRA1*01:01/DRB1*01:01) on K562 cells (peptide-MHC, human)
MHC II alpha: not shown
MHC II beta: not shown
notes: whole, on cells; Stably transduced in class II-deficient K562 cells
Turning to B1, the binding result was “no binding”.

The values above are taken from patent US20220281949A1 (UNIVERSITY HEALTH NETWORK, published 2022).
